The values that follow come from paper PMC4551934, “RNA aptamer inhibitors of a restriction endonuclease”.

Data set [1] concerns the target KpnI restriction endonuclease (UniProt P25237 1-218). Briefly: cleavage inhibition; 20 nM DNA probe N10; Kd EMSA: 10 mM Bis-Tris-Propane-HCl pH 7, 10 mM MgCl2, 100 ug/ml BSA, 37 C, 30 min; screen EMSA in selection buffers, 37 C: 10 mM HEPES pH 7.5 with 400 mM NaCl/. Conditions: protein: commercial, chain copies: 2. In general terms: A gel shift assay detects complexes by their altered migration in electrophoresis.

Data set [2] addresses T1, BamHI(E111A) restriction endonuclease (UniProt P23940 1-213, E111A).
T1 sequence: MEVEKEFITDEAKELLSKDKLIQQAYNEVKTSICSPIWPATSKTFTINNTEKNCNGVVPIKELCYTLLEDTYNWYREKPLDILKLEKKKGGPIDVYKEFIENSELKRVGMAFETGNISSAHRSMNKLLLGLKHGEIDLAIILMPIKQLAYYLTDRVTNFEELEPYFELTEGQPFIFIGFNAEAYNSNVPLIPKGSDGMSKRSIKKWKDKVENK
The data set can be described thus: EMSA; 20 nM protein; Kd EMSA: 10 mM Bis-Tris-Propane-HCl pH 7, 10 mM MgCl2, 100 ug/ml BSA, 37 C, 30 min; screen EMSA in selection buffers, 37 C: 10 mM HEPES pH 7.5 with 400 mM NaCl/. Conditions: protein: commercial; chain copies: 2; label: 32P; hairpin.

Sequence of KpnI restriction endonuclease (P25237 whole entry): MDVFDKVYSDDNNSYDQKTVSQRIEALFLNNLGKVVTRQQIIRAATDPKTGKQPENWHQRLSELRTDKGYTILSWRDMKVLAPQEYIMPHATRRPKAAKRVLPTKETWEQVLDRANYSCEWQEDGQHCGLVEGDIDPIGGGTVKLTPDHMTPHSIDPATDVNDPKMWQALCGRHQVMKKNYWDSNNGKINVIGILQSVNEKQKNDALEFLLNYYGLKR

B1: aptamer 20s (38 nt) (structured_RNA)
RNA: GGGCAUGAUUCGGAAAAGCGUAACCGCGGCCAAUCAUG
What is called IC50 is the concentration that inhibits the measured activity by half. Higher therefore signals a need for much substance. For B1, in data set [1] (hairpin), half-maximal inhibition (IC50) was put at 13 ± 1.5 nM.

B2: 20_AAA (structured_RNA)
RNA: GGGCAUGAUUCGGAUAUGCGUAACCGCGGCCAAUCAUG
Turning to B2, in data set [1], the IC50 worked out at 104000 nM.

B3: anti-KpnI aptamer 29 (16/23/29) (structured_RNA)
RNA: GGGAUAUCCCUACAUGAUAAUCGGGUGAGUAAGGCCUAAACAUCAUGCAUGAAGCGUUCCAUAUUUUU
With B3, 153 ± 11 nM corresponded to half-maximal inhibition in data set [1] (label: 32P, hairpin) (IC50). Further, the binding result in data set [2] is given as “no binding”.

B4: anti-KpnI aptamer 20 (structured_RNA)
RNA: GGGAUAUCCUUCAUGAUUCGGAAAAGCGUAACCGCGGCCAAUCAUGCAUGAAGCGUUCCAUAUUUUU
As to B4, in data set [1] (label: 32P, hairpin), it took 36.1 ± 3.9 nM to reach half-maximal inhibition (IC50). Also, in data set [2], the binding result is recorded as “no binding”.

B5: anti-KpnI aptamer 30 (structured_RNA)
RNA: GGGAUAUCCUUCAUGAUUCGGAAAAGCGUAACCGCGGCCGAUCAUGCAUGAAGCGUUCCAUAUUUUU
Regarding B5, the IC50 in data set [1] (label: 32P, hairpin) turned out to be 23.1 ± 0.8 nM. Besides, the binding result in data set [2] is reported as “no binding”.

B6: anti-KpnI aptamer 24 (structured_RNA)
RNA: GGGAUAUCCUUCAUGGUGUGAUUAAACGUAAUCUCAAUCGAUCAUGCAUGAAGCGUUCCAUAUUUUU
In the case of B6, the binding result in data set [2] was “no binding”.

B7: 20_26 nt (structured_RNA)
RNA: GGGUCGGAAAAGCGUAACCGCGGCCA
Molecule B7 came in with an IC50 in data set [1] of 77000 nM.
